experiment: soluble on expression in E. coli; label from the status in PepcDB or PDB records

Soluble on expression in E. coli, not soluble:
MGSDKIHHHHHHLIIDANIYWLPNEIFVSEEMTNHFLRVVPREYGVYAYQREKNKNEREFVIEKPEGSENLNYFQGDYDLSVQLENMDQAGVDTGVMKLPGCQEWLDLDLCIQFNNQMAETVKKSKGRFRALAVVPPSGDADTLRELKRCIKELHMNGLQLSAHYGNKYLDDPMFRPLLKCASDLNIPVYVHHTPVPVEYNSLADYNNLRRSYGRCEDQTIAVTREIFSGMFKELPNLKMIHSMLGGGYFAYKNMFFPNDSGHGRFDANTSDVARSLKDNIYFEMSHAQPWGKAELKCAVEVLGADHIIYGSSYPVKKDWLIGGPQYVGDLPISQDEKDMLLFKNAERIYGIK, MGSDKIHHHHHHLIKNILIMAANGQISRLIENQILNDDQFANVHLTLFLRHQSRLAQLAKNPRVTLIEGSLDRLDDVKKAMVDQDLVFIGVVDHSKGSQQTQNVIAGMKAGHVQRVIYTNVLGIYDEVPGTFGKWNKATIGNGLPSALKSDQLLEQSGLDYTTLRLPWLNDRDVKYQLTHKDETYVGVSGSRKSVADVVLKIIADPDYLKNDSVGIADPDTAGSDRLVY, MGSDKIHHHHHHLLYRTIMVGENLESMQCEKYFESLFDVDFDYLVGLGKEMPTILFIDASKYSKDVLNDWIFAFTNIILINNNPIRAFIIRGYSEELQEFKGYYRVVSSYKSPRQIVQEIISNVNDHLDKMIGNSSRVIQMKKMLVLSMFYDGSIMILGETGSGKNLLAEVIAKLSPRGSRPFYSINCAAIPENLLESEIFGYKKGAFTGATSEKVGLIEQANNGTLFLDEIGDMPLNLQAKILAITENREFFKIGATRPIKVDVRFITATNRYDDSAMRNDLRYRLSAVKIDLPPLRERKSDISLIFDEILEKKGYLVKFENIPQDLKERFLSYSYPGNVRELINMIEEYLAVNDVVQASVNSSMSKYVKVLAEEAIVARMVNGTSYKDFLQEVYKSVSQELLLQRSEVLKNDINEIAREFGLTTRRIRDLLAELNSSAKALTPNDDDE, MGSDKIHHHHHHLNNCGMVAWIMTLYTPEKPRGFDLIVIGNDVTFQSGSFGTAEDDLFAAASTYSREHKLPRVNVSVNSGARIGLSTKISKLVKLQLENEDKPEQGFEYIYIDGEHKAQIEGEVVYEELGNGRLKILAVIGAKNEKIGVENLQGSGLIAGETARAYAEVPTYCYVTGRSVGIGAYTARLAHRIVQHKQSHLILTGYEALNTLLGKKVYTSNNQLGGPEVMFRNGVTHAVVDNDLEGIAKVIRWMSFLPTPTEEFPFFSKHGDDCSARDVVIPSDSEQNTYDVRDLIDSKNLSNQTGICDTMSFDEICGDWAKSIVAGRARLCGIPIGVVSSEFRNFSTIVPADPAIDGSQVQNTQRAGQVWYPDSAFKTAEAINDLNKENLPLMIIASLRGFSGGQKDMYDMVLKFGAQIVDALAVYNRPVIVYIPEAGELRGGAWAVLDSKIRPEFIHLVADEKSRGGILEPNAVVGIKFRKPMMMEMMKRSDPTYSKLSSSTEPEAREQLEERYEELSKTYRNASVEFADAHDRWQRMKSVGVVEHVTSLTNSRRLFSELLRNEL, MGSDKIHHHHHHLNTRDFEYFLALTQTRNFSQTAEQFAVSQPTITTAIKRLEDSFQAQLIIRDRRHHDIGVTSAGKQLAAHAQVILQQLTLAQQEIAWDQTNKIRFGLPPIIGNYFFPKIAPQLIAAGLMPQLQTVEAGSAALLNQIKQGDLDFALLGASGPLQEPDLTISQIGTAPFVIITSESDPLAQKDKVRFAELAMQKFVTLSEAFVHTRAFTWFQQQSAFIPNVVYQTGDVQLLKQMVVQNVGIGFLTNLAINPDDHLAAVKLTDPKQPVFTISIVRRKDRVLTPAMQHFNQILAAN, MGSDKIHHHHHHLQFAVLSSGSAGNCSLLMTDQHKILMDAGLSGKKTKELLAKVGVAIEDLDMVFLSHDHGDHSGGMGVLMRRYPQLNAFSNTVTWKYLEETGKIGCLPKDQINVIEPGQTKCYGDLEVTAFATSHDAAQPQYYVFSSGGKRLACLTDTGYVSEEVEYEIQDADAYLLEFNYDDLMLRSGPYPWSLQQRVRSDHGHLSNEQAAETLARVISSKTKHVFMAHRSQQNNLNYLARDVAEEVLAARDADVASDLELHDTEPMTPSSLINL, MGSDKIHHHHHHLRNSIDLTKKIKEKAFEEGFDAVGIAKVPGSSRIKLRTASLERWLQAGHQATMEWMKSPRRKDIENMLQGVKSILAVGLNYYVDTERESKDISIARYGWGKDYHKIIEEKLKKVAKFLETERPNAKWKICVDTSAFLDKAWAEEAGIGWIGKHSNVINSEIGSWMFLGHLLSTEVLEADKPSKPICGECEKCIEACPTKAIEEPFIVNSYKCLAYHTLENRDQELPENIINKMGNWIAGCDICQDVCPWNQKHIPSTTEPDLQPSEWILHTTKQDLLSWDDAKWKESLKNSALKRIKPWMWRRNIDSISKKT, MGSDKIHHHHHHMAAPIIHGGGITEAAARFGGTPEDWLDLSTGINPCPAALPEIDARVWHRLPDRHVEEAARAAASRYYRTGELMPLPVPGTQAAIQLLPRIAGQRKRVAIFAPTYGEYARVLKAAGLVVDSVTCAGDLQAAHGLAVVVNPNNPTGRRFPPEEILAMAEAMRAHGGLLVVDEAFGDLEPDASVAGHVAANDNLVVFRSFGKYFGLAGLRLGFVVASRTVEDSFRDWLGPWSVSGPALAISAKLMEGDTLGIKVGIAERKAALDAVLFGAGLDVVGGTGLFTLVEHERAYDLHAALCEAHILTRKFDYDPRWLRIGLSPNAQGDRRLAEALNRMGV, MGSDKIHHHHHHMADNTPKFSQGSTSDTVGYEDFLVDLKTRISNAQLRAVVAVNKELVLLYWQIGRDILHRQQQQGWGAKVIDRLASDLRKAFPDIKGFSSRNLKYMRAFAEAYNDEEFVQQAVAQIPWGHNVRLLDAVKDPAERLWYAQQTIQNGWSRNVLVHQIESKLYQRQGKATTNFNNTLPQPQSELAQQLLKDPYTFDFLNLGEDFLERDLERALIKHIRDFLLELGVGFAFVGSQYHLEVGGEDFYIDLLFYHLRLRCFVVIDLKIEDFKPEFSGKMNFYVSAVDDLLRHPNDQSTIGIILCRSKNKVIAEYSLRDMYKPIGVSTYQLKDNLPEFVQDNLPTIEQLESELETVVLKLEKLDDL, MGSDKIHHHHHHMAEITSISQFLSTAKTQFQVYDLGRRVQHIDAMAFAQIEALQAPYPYPIQGHAKMALVFWDASEQHFVWFISLPLDERGLLSPAPRSHFIQMILEALGQDLTRTLSEDEQQKMANHPFSFKPTQEKLAVFNALVRRHLGRSASSQYEFAAQYLSGQLPAESWPNVGFQGLADICVRLGELDHAAMVARALKNAPMEVQIALCQCLEHVLVSDEVKDALLAGLEEHRDARLIYFLRALGSQSDASVRAIASLAEKRLLTEEVLICIAGRNWLALRDDVCRKNFLEALALMPQDFFNQVFADIVAIPALRTSMLMAIRDPNRSDALSLAIGGLFKATKS, MGSDKIHHHHHHMAEKTIVEKLQLTKYKEAVILNQPNGADYFQNLANYEEKLADKQYDLIFDFVETLEELITFVQKVIAENKLAANGYLFFAYPKKGNKKFATYVHRDELMPALKTDEEGYVDGSTLKFTRMVALDETYTVVGLKEAAKLKAKGVKKNNPSADEYADHVPLVAEFLADKGDLQAFYNNLATGYQRVWARYIYSAKQPATQEKRRLEMVDILSQGYKTKDLYRQGKK, MGSDKIHHHHHHMAEKVDYAALKKGGFMRQKQKGCFSLRIAVVGGNLTAENIKTVAEVAEKYGHGYVHMTSRQGIEIPFIKVEDINVVKEELAKGGVGTGVCGPRVRTVTACQGSEICPSGCIDTYTLAKELDERYFGRELPHKFKFGVTGCQNNCLKAEENDVGIKGGMTVECSHDDCIQCGVCVKACREGALSMEDGRIVIDRDKCNNCARCVKSCPTDAWKGTPGYIVSFGGLFGNHIYKGEQLVPIIRDKETLFRVTDAAISFFEKHANGGERFRLTLQRVGEEEFKKEIQAAYEGK

— the DeepSol protein solubility set
